Molecular target: flag-tagged Cyclin D1 (UniProt P24385 1-295)
Assay: cell-based or functional assay

Chain of flag-tagged Cyclin D1 (P24385 whole entry): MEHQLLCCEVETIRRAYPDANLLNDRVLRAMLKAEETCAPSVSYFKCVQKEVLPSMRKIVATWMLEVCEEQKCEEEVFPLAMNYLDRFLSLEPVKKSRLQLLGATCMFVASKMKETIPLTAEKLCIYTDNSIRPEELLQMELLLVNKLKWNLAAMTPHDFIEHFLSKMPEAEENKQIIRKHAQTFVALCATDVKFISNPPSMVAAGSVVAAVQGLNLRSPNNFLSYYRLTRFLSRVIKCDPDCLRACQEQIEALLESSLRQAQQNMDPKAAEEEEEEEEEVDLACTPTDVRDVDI

B1: myc-tagged full-length EBNA3C (residues 1-992) (natural protein)
chain: MESFEGQGDSRQSPDNERGDNVQTTGEHDQDPGPGPPSSGASERLVPEESYSRDQQPWGQSRGDENRGWMQRIRRRRRRRAALSGHLLDTEDNVPPWLPPHDITPYTARNIRDAACRAVKQSHLQALSNLILDSGLDTQHILCFVMAARQRLQDIRRGPLVAEGGVGWRHWLLTSPSQSWPMGYRTATLRTLTPVPNRVGADSIMLTATFGCQNAARTLNTFSATVWTPPHAGPREQERYAREAEVRFLRGKWQRRYRRIYDLIELCGSLHHIWQNLLQTEENLLDFVRFMGVMSSCNNPAVNYWFHKTIGNFKPYYPWNAPPNENPYHARRGIKEHVIQNAFRKAQIQGLSMLATGGEPRGDATSETSSDEDTGRQGSDVELESSDDELPYIDPNMEPVQQRPVMFVSRVPAKKPRKLPWPTPKTHPVKRTNVKTSDRSDKAEAQSTPERPGPSEQSSVTVEPAHPTPVEMPMVILHQPPPVPKPVPVKPTPPPSRRRRGACVVYDDDVIEVIDVETTEDSSSVSQPNKPHRKHQDGFQRSGRRQKRAAPPTVSPSDTGPPAVGPPAAGPPAAGPPAAGPPAAGPPAAGPPAAGPRILAPLSAGPPAAGPHIVTPPSARPRIMAPPVVRMFMRERQLPQSTGRKPQCFWEMRAGREITQMQQEPSSHLQSATQPTTPRPSWAPSVCALSVMDAGKAQPIESSHLSSMSPTQPISHEEQPRYEDPDAPLDLSLHPDVAAQPAPQAPYQGYQEPPAPQAPYQGYQEPPPPQAPYQGYQEPPAHGLQSSSYPGYAGPWTPRSQHPCYRHPWAPWSQDPVHGHTQGPWDPRAPHLPPQWDGSAGHGQDQVSQFPHLQSETGPPRLQLSLVPLVSSSAPSWSSPQPRAPIRPIPTRFPPPPMPLQDSMAVGCDSSGTACPSMPFASDYSQGAFTPLDINATTPKRPRVEESSHGPARCSQATAEAQEILSDNSEISVFPKDAKQTDYDASTESELD
B1 was tested, and the “in vitro kinase activity of flag-Cyclin D1/CDK6 immunoprecipitates toward histone H1, HEK 293T cells transfected with increasing amounts of myc-EBNA3C vector (0, 5, 15 µg)” value was 1.6 fold and the “in vitro kinase activity of flag-Cyclin D1/CDK6 immunoprecipitates toward recombinant GST-pRb (residues 792-928), HEK 293T cells transfected with increasing amounts of myc-EBNA3C vector (0, 5, 15 µg)” value was 2.3 fold.
